Laboratory results published in paper PMC3660568.

Tests used:
[1] = target: anti-HER2 IgG1 heavy chain (biosimilar Herceptin); experiment: non-reducing SDS-PAGE with western blot; crude supernatant of stably transfected CHO DG44 pools at the end of culture, non-reducing conditions; detected with anti-human IgG Fc and anti-human kappa LC antibodies; species assigned by molecular weight
[2] = target: anti-HER2 IgG1 light chain (biosimilar Herceptin); experiment: as above

Substance | stoichiometry N [1] | stoichiometry N [2]
anti-HER2 IgG1 heavy chain (biosimilar Herceptin) | 2 | 
anti-HER2 IgG1 light chain (biosimilar Herceptin) |  | 2
